Reference: patent US20090226458A1

Target: Netrin-1-FlagM2 (recombinant netrin-1, Apotech)
Assay: ELISA: DCC-5Fbn 100 ng coated, netrin-1 0 to 800 ng, IL3-R values subtracted

Kd: 5 nM
Substance: DCC-5Fbn (recombinant soluble fifth fibronectin type III domain of DCC) (from UniProt P43146 846-942) (receptor)
